Here are results for 15 molecules from patent US20230257470A1 (published 2023).

Common to all, as to assay: SPR (Biacore), antibody captured, FcγR as analyte; amount bound / that of GpH7-B3/GpL16-k0 x 100;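 also: FcγR binding response divided by the captured antibody amount before comparison, measured at 25 °C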
For orientation: Surface plasmon resonance follows binding to a sensor surface in real time, without labels.

In assay [1] the target is T1, human FcγRIIIa(F) (human, UniProt P08637 17-208, limits assumed).
T1 construct: also called FcgRIIIaF; FcγRIIIa allotype F158

The target in assay [2] is T2, human FcγRIIa(H) (human, UniProt P12318 36-217).
T2 construct: also called FcgRIIaH; FcγRIIa type H
T2 sequence: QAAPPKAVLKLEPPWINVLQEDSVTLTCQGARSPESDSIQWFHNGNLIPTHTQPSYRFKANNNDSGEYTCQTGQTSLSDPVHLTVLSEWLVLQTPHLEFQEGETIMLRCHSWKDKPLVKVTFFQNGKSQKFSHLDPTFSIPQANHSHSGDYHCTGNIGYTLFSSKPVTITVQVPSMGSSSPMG

In assay [3] the target is T3, human FcγRIa (human, UniProt P12314 16-292, limits assumed).
T3 construct: also called FcgRIa; CD64

Assay [4] addresses T4, human FcγRIIa(R) (human, UniProt P12318 36-217).
T4 construct: also called FcgRIIaR; FcγRIIa type R
T4 chain: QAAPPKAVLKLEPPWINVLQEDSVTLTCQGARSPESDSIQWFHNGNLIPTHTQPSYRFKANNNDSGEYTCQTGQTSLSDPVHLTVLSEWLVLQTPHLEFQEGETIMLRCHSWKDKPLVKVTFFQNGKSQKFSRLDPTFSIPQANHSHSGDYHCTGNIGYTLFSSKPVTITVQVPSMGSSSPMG

In assay [5] the target is T5, human FcγRIIb (human, UniProt P31994 43-217, limits assumed).
T5 construct: also called FcgRIIb; FcγIIB
T5 sequence: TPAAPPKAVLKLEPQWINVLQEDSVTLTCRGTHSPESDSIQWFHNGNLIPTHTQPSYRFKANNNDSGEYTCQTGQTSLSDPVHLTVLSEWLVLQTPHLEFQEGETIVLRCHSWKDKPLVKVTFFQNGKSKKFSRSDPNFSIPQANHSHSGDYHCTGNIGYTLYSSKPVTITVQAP

T1 sequence (P08637 other isoform, or with tags, fused parts or gaps limits assumed): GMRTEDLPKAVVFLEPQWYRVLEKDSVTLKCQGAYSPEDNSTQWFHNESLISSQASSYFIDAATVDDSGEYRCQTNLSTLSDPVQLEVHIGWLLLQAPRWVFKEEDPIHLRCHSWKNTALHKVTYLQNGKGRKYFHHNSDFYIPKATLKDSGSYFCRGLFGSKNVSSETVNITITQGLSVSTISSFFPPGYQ
T3 sequence (P12314 16-292 limits assumed): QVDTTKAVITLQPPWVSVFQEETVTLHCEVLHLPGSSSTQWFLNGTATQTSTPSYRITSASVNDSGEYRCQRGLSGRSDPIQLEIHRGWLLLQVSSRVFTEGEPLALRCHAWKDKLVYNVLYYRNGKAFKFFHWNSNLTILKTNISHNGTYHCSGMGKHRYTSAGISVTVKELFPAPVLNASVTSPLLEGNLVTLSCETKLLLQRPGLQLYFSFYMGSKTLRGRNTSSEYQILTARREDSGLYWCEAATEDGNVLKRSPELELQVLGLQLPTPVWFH

B1: GpH7-B3/GpL16-k0 variant P271T (antibody, human IgG1)
heavy: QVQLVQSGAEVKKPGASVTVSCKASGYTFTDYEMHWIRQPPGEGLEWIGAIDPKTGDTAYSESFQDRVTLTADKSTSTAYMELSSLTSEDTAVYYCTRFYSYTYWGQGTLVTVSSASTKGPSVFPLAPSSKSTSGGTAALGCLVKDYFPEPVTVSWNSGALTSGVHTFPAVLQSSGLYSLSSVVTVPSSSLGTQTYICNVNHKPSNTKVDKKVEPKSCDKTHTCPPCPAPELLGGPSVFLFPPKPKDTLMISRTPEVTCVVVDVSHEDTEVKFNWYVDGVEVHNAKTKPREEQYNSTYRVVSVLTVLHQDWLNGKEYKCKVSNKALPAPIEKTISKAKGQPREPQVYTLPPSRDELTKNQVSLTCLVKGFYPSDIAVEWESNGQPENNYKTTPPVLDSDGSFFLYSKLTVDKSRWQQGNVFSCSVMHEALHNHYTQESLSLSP
light: DIVMTQSPLSLPVTPGEPASISCQASESLVHSNRNTYLHWYLQKPGQSPQLLIYKVSNRFSGVPDRFSGSGSGTDFTLKISRVEAEDVGVYYCSQNTHVPPTFGQGTKVEIE
notes: also called B3 variant; copies: 2 + 2
Take B1: the relative binding activity in assay [1] turned out to be 31 GpH7-B3/GpL16-k0 = 100; in assay [2] it was 42 GpH7-B3/GpL16-k0 = 100; in assay [3], 98 GpH7-B3/GpL16-k0 = 100; in assay [4] it was 73 GpH7-B3/GpL16-k0 = 100; in assay [5], 78 GpH7-B3/GpL16-k0 = 100.

B2: GpH7-B3/GpL16-k0 variant S298K (antibody, human IgG1)
heavy: not shown
light: DIVMTQSPLSLPVTPGEPASISCQASESLVHSNRNTYLHWYLQKPGQSPQLLIYKVSNRFSGVPDRFSGSGSGTDFTLKISRVEAEDVGVYYCSQNTHVPPTFGQGTKVEIE
notes: as for B1
Take B2: the relative binding activity in assay [1] was 25 GpH7-B3/GpL16-k0 = 100; in assay [2], 38 GpH7-B3/GpL16-k0 = 100; in assay [3], 88 GpH7-B3/GpL16-k0 = 100; in assay [4] it was 79 GpH7-B3/GpL16-k0 = 100; in assay [5] it was 34 GpH7-B3/GpL16-k0 = 100.

B3: GpH7-B3/GpL16-k0 variant Q295G (antibody, human IgG1)
heavy: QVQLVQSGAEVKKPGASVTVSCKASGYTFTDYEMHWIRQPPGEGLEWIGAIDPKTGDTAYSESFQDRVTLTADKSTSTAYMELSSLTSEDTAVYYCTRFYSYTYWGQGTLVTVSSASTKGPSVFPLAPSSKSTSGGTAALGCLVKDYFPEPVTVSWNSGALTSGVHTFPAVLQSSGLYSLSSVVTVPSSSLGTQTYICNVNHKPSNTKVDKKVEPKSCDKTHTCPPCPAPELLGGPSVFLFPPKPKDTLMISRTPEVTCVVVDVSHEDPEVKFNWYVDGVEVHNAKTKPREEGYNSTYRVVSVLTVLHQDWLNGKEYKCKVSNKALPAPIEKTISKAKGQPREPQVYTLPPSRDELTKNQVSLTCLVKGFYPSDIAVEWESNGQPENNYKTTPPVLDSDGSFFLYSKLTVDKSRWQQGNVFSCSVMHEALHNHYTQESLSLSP
light: DIVMTQSPLSLPVTPGEPASISCQASESLVHSNRNTYLHWYLQKPGQSPQLLIYKVSNRFSGVPDRFSGSGSGTDFTLKISRVEAEDVGVYYCSQNTHVPPTFGQGTKVEIE
notes: as for B1
B3: the relative binding activity in assay [1] is 55 GpH7-B3/GpL16-k0 = 100; in assay [2] it was 41 GpH7-B3/GpL16-k0 = 100; in assay [3] it was 89 GpH7-B3/GpL16-k0 = 100; in assay [4], 36 GpH7-B3/GpL16-k0 = 100; in assay [5], 28 GpH7-B3/GpL16-k0 = 100.

B4: GpH7-B3/GpL16-k0 variant Q295H (antibody, human IgG1)
heavy: not shown
light: DIVMTQSPLSLPVTPGEPASISCQASESLVHSNRNTYLHWYLQKPGQSPQLLIYKVSNRFSGVPDRFSGSGSGTDFTLKISRVEAEDVGVYYCSQNTHVPPTFGQGTKVEIE
notes: as for B1
B4: the relative binding activity worked out at 52 GpH7-B3/GpL16-k0 = 100 in assay [1]; 78 GpH7-B3/GpL16-k0 = 100 in assay [2]; 97 GpH7-B3/GpL16-k0 = 100 in assay [3]; 45 GpH7-B3/GpL16-k0 = 100 in assay [4]; 29 GpH7-B3/GpL16-k0 = 100 in assay [5].

B5: GpH7-B3/GpL16-k0 variant P271W (antibody, human IgG1)
heavy: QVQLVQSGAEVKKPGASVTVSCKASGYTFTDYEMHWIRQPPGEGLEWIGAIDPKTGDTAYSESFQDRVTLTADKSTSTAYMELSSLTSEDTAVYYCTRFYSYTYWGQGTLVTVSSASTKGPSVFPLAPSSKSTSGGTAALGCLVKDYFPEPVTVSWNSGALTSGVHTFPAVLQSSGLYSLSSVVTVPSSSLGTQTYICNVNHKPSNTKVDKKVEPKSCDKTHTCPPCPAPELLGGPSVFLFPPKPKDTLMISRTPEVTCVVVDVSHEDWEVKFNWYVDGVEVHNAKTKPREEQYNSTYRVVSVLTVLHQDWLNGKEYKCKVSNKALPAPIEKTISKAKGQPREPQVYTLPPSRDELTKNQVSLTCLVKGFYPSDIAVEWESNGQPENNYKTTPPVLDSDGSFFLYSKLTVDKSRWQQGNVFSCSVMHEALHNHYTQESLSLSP
light: DIVMTQSPLSLPVTPGEPASISCQASESLVHSNRNTYLHWYLQKPGQSPQLLIYKVSNRFSGVPDRFSGSGSGTDFTLKISRVEAEDVGVYYCSQNTHVPPTFGQGTKVEIE
notes: as for B1
Take B5: the relative binding activity in assay [1] came out at 57 GpH7-B3/GpL16-k0 = 100; in assay [2], 75 GpH7-B3/GpL16-k0 = 100; in assay [3], 100 GpH7-B3/GpL16-k0 = 100; in assay [4], 46 GpH7-B3/GpL16-k0 = 100; in assay [5], 33 GpH7-B3/GpL16-k0 = 100.

B6: GpH7-B3/GpL16-k0 variant Q295R (antibody, human IgG1)
heavy: not shown
light: DIVMTQSPLSLPVTPGEPASISCQASESLVHSNRNTYLHWYLQKPGQSPQLLIYKVSNRFSGVPDRFSGSGSGTDFTLKISRVEAEDVGVYYCSQNTHVPPTFGQGTKVEIE
notes: as for B1
Regarding B6, the relative binding activity in assay [1] was 52 GpH7-B3/GpL16-k0 = 100; in assay [2] it was 94 GpH7-B3/GpL16-k0 = 100; in assay [3] it was 100 GpH7-B3/GpL16-k0 = 100; in assay [4], 61 GpH7-B3/GpL16-k0 = 100; in assay [5], 46 GpH7-B3/GpL16-k0 = 100.

B7: GpH7-B3/GpL16-k0 variant Q295W (antibody, human IgG1)
heavy: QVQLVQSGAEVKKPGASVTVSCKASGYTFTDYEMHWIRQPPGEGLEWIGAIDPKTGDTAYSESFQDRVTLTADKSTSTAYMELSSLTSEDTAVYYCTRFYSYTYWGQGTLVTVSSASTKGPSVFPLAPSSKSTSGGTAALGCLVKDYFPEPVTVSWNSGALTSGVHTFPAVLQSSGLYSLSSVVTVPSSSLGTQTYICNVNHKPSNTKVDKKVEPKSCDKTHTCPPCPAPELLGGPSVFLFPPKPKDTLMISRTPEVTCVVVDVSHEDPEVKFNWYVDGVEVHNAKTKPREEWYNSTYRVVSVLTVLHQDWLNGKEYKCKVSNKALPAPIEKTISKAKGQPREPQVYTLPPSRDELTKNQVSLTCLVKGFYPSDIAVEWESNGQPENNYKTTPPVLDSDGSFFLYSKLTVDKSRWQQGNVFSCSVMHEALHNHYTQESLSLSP
light: DIVMTQSPLSLPVTPGEPASISCQASESLVHSNRNTYLHWYLQKPGQSPQLLIYKVSNRFSGVPDRFSGSGSGTDFTLKISRVEAEDVGVYYCSQNTHVPPTFGQGTKVEIE
notes: as for B1
As for B7, the relative binding activity was 10 GpH7-B3/GpL16-k0 = 100 in assay [1]; 38 GpH7-B3/GpL16-k0 = 100 in assay [2]; 81 GpH7-B3/GpL16-k0 = 100 in assay [3]; 26 GpH7-B3/GpL16-k0 = 100 in assay [4]; 16 GpH7-B3/GpL16-k0 = 100 in assay [5].

B8: GpH7-B3/GpL16-k0 variant Q295N (antibody, human IgG1)
heavy: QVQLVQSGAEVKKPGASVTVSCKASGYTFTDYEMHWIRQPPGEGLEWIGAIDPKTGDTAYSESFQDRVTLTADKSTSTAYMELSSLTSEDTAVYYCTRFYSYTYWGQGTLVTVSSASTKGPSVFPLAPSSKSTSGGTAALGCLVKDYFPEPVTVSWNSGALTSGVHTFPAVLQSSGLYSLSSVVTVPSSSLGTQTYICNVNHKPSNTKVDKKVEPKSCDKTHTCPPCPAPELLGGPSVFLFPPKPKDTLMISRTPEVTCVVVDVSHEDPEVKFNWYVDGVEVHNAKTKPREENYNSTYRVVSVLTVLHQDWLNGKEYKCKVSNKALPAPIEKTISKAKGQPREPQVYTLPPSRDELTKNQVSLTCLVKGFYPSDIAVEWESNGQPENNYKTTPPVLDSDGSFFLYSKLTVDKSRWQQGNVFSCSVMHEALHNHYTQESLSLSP
light: DIVMTQSPLSLPVTPGEPASISCQASESLVHSNRNTYLHWYLQKPGQSPQLLIYKVSNRFSGVPDRFSGSGSGTDFTLKISRVEAEDVGVYYCSQNTHVPPTFGQGTKVEIE
notes: as for B1
B8: the relative binding activity was 68 GpH7-B3/GpL16-k0 = 100 in assay [1]; 74 GpH7-B3/GpL16-k0 = 100 in assay [2]; 99 GpH7-B3/GpL16-k0 = 100 in assay [3]; 56 GpH7-B3/GpL16-k0 = 100 in assay [4]; 41 GpH7-B3/GpL16-k0 = 100 in assay [5].

B9: GpH7-B3/GpL16-k0 variant P271Y (antibody, human IgG1)
heavy: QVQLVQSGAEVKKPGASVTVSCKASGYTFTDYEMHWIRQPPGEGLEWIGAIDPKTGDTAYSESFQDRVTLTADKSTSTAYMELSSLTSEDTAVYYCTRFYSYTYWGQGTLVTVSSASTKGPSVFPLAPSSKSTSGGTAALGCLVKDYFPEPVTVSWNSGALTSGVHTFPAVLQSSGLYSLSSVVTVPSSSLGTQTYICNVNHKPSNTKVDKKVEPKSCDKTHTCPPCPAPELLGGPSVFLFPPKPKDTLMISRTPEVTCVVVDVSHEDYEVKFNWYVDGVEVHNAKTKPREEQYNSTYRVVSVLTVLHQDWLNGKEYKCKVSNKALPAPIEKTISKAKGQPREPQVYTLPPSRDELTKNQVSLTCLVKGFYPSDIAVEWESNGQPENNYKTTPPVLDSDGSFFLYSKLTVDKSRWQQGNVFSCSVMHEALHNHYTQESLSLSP
light: DIVMTQSPLSLPVTPGEPASISCQASESLVHSNRNTYLHWYLQKPGQSPQLLIYKVSNRFSGVPDRFSGSGSGTDFTLKISRVEAEDVGVYYCSQNTHVPPTFGQGTKVEIE
notes: as for B1
In the case of B9, the relative binding activity in assay [1] turned out to be 33 GpH7-B3/GpL16-k0 = 100; in assay [2], 48 GpH7-B3/GpL16-k0 = 100; in assay [3], 98 GpH7-B3/GpL16-k0 = 100; in assay [4], 38 GpH7-B3/GpL16-k0 = 100; in assay [5], 28 GpH7-B3/GpL16-k0 = 100.

B10: GpH7-B3/GpL16-k0 variant S298G (antibody, human IgG1)
heavy: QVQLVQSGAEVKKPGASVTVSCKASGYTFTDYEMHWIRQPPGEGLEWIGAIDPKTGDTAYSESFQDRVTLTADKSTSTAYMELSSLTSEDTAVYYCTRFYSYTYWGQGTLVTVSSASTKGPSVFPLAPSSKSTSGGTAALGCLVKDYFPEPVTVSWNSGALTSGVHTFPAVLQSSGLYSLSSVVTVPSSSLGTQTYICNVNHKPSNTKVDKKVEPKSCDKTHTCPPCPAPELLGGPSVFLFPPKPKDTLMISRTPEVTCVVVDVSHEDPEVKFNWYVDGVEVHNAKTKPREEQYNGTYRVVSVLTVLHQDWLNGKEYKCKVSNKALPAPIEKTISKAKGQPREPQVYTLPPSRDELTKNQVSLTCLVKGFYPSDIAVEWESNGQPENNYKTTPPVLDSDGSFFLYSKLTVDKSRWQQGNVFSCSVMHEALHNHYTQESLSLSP
light: DIVMTQSPLSLPVTPGEPASISCQASESLVHSNRNTYLHWYLQKPGQSPQLLIYKVSNRFSGVPDRFSGSGSGTDFTLKISRVEAEDVGVYYCSQNTHVPPTFGQGTKVEIE
notes: as for B1
As to B10, the relative binding activity in assay [1] turned out to be 59 GpH7-B3/GpL16-k0 = 100; in assay [2], 43 GpH7-B3/GpL16-k0 = 100; in assay [3], 100 GpH7-B3/GpL16-k0 = 100; in assay [4] it was 89 GpH7-B3/GpL16-k0 = 100; in assay [5], 68 GpH7-B3/GpL16-k0 = 100.

B11: GpH7-B3/GpL16-k0 variant Q295Y (antibody, human IgG1)
heavy: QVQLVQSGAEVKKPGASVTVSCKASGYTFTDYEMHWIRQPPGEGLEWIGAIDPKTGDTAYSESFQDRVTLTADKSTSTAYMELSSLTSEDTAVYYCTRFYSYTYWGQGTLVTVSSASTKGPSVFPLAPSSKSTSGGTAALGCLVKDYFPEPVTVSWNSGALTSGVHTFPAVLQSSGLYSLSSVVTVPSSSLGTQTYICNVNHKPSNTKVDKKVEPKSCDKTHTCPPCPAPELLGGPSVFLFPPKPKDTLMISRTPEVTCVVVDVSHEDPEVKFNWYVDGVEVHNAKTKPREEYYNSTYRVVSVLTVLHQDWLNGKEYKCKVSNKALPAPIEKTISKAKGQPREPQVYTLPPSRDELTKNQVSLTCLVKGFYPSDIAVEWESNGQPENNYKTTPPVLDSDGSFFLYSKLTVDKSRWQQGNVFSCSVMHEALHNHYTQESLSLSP
light: DIVMTQSPLSLPVTPGEPASISCQASESLVHSNRNTYLHWYLQKPGQSPQLLIYKVSNRFSGVPDRFSGSGSGTDFTLKISRVEAEDVGVYYCSQNTHVPPTFGQGTKVEIE
notes: as for B1
For B11, the relative binding activity in assay [1] worked out at 49 GpH7-B3/GpL16-k0 = 100; in assay [2], 70 GpH7-B3/GpL16-k0 = 100; in assay [3] it was 95 GpH7-B3/GpL16-k0 = 100; in assay [4], 38 GpH7-B3/GpL16-k0 = 100; in assay [5], 24 GpH7-B3/GpL16-k0 = 100.

B12: GpH7-B3/GpL16-k0 variant Q295F (antibody, human IgG1)
heavy: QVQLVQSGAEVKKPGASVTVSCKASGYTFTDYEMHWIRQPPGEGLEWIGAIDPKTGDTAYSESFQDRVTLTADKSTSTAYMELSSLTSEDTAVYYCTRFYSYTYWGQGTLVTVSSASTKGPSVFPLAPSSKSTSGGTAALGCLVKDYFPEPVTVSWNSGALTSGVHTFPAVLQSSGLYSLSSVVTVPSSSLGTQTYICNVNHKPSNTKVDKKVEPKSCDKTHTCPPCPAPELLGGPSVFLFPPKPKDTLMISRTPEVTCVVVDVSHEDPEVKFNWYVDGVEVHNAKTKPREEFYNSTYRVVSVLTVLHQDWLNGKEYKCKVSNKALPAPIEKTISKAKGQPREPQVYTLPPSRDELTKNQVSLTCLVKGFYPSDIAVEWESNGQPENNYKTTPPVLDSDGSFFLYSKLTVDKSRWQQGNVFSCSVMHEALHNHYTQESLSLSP
light: DIVMTQSPLSLPVTPGEPASISCQASESLVHSNRNTYLHWYLQKPGQSPQLLIYKVSNRFSGVPDRFSGSGSGTDFTLKISRVEAEDVGVYYCSQNTHVPPTFGQGTKVEIE
notes: as for B1
For the molecule B12, the relative binding activity in assay [1] is 46 GpH7-B3/GpL16-k0 = 100; in assay [2], 74 GpH7-B3/GpL16-k0 = 100; in assay [3], 99 GpH7-B3/GpL16-k0 = 100; in assay [4], 46 GpH7-B3/GpL16-k0 = 100; in assay [5] it was 30 GpH7-B3/GpL16-k0 = 100.

B13: GpH7-B3/GpL16-k0 variant S298P (antibody, human IgG1)
heavy: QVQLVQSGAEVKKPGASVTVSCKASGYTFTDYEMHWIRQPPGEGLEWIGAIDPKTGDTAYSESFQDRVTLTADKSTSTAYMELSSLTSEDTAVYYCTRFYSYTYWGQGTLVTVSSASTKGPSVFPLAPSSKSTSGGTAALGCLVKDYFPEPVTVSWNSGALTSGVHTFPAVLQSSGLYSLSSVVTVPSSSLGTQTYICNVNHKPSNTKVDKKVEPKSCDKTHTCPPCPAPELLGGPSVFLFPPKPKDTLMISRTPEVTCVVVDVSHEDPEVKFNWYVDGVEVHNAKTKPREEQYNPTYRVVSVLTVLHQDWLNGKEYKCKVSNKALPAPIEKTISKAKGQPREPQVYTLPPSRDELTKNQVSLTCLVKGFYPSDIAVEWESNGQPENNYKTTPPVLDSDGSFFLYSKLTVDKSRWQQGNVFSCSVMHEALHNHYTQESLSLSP
light: DIVMTQSPLSLPVTPGEPASISCQASESLVHSNRNTYLHWYLQKPGQSPQLLIYKVSNRFSGVPDRFSGSGSGTDFTLKISRVEAEDVGVYYCSQNTHVPPTFGQGTKVEIE
notes: as for B1
On to B13, for which the relative binding activity in assay [1] was 0 GpH7-B3/GpL16-k0 = 100; in assay [2], 0 GpH7-B3/GpL16-k0 = 100; in assay [3] it was 15 GpH7-B3/GpL16-k0 = 100; in assay [4] it was 0 GpH7-B3/GpL16-k0 = 100; in assay [5] it was -1 GpH7-B3/GpL16-k0 = 100.

B14: GpH7-B3/GpL16-k0 variant Q295D (antibody, human IgG1)
heavy: not shown
light: DIVMTQSPLSLPVTPGEPASISCQASESLVHSNRNTYLHWYLQKPGQSPQLLIYKVSNRFSGVPDRFSGSGSGTDFTLKISRVEAEDVGVYYCSQNTHVPPTFGQGTKVEIE
notes: as for B1
Turning to B14, the relative binding activity in assay [1] came to 64 GpH7-B3/GpL16-k0 = 100; in assay [2], 37 GpH7-B3/GpL16-k0 = 100; in assay [3], 95 GpH7-B3/GpL16-k0 = 100; in assay [4], 43 GpH7-B3/GpL16-k0 = 100; in assay [5], 40 GpH7-B3/GpL16-k0 = 100.

B15: GpH7-B3/GpL16-k0 variant Q295S (antibody, human IgG1)
heavy: not shown
light: DIVMTQSPLSLPVTPGEPASISCQASESLVHSNRNTYLHWYLQKPGQSPQLLIYKVSNRFSGVPDRFSGSGSGTDFTLKISRVEAEDVGVYYCSQNTHVPPTFGQGTKVEIE
notes: as for B1
As to B15, the relative binding activity turned out to be 87 GpH7-B3/GpL16-k0 = 100 in assay [1]; 67 GpH7-B3/GpL16-k0 = 100 in assay [2]; 100 GpH7-B3/GpL16-k0 = 100 in assay [3]; 52 GpH7-B3/GpL16-k0 = 100 in assay [4]; 40 GpH7-B3/GpL16-k0 = 100 in assay [5].
